Legend:
[1] = target: T1, fusion protein of a human IgG1 Fc domain and human LAP-TGFβ1 (human, UniProt P01137 30-390); test: BLI, 2:1 model, component 1
T1 construct: printed both as Fc-huB1 and LAP-TGFβ-Fc; also called Fc-huB1; Fc-human LAP
Experimental: A streptavidin-functionalized tip was equilibrated in binding buffer (10 mM sodium phosphate, 150 mM sodium chloride, 1% (w/v) bovine serum albumin, 0.05% (w/v) sodium azide, pH 7.4) and dipped in a 5 μg/mL solution of biotinylated antibody (i.e., 20E6_H0.2aL1_hIgG1, murine 16F4, or MHG8, a GARP-specific murine IgG2a described in Lienart et al. Science 2018; 362:952-956) in binding buffer for 30 seconds to load the tip with antibody. The antibody-loaded tip was then washed in binding buffer and placed in a solution containing 0-24 nM of a fusion protein containing a human IgG1 Fc domain fused to either human LAP-TGFβ1, the soluble GARP-LAP-TGFβ1 complex, or the soluble ECR3E-LAP-TGFβ1 complex. The antigen was allowed to bind to antibody for 5 minutes (association phase), and then the tip was moved to binding buffer (dissociation phase). The binding and dissociation data for 16F4 and MHG8 were well-fit by a 1:1 binding model. The association and dissociation phases for 20E6_H0.2aL1_hIgG1 antibody were fit to a 2:1 heterogenous ligand binding model to determine the binding rate constants.
As shown in FIG. 24 and Table 21, the 20E6_H0.2aL1_hIgG1 antibody bound to free LAP-TGFβ1 and the soluble GARP-LAP-TGFβ1 complex with nanomolar affinity, but not to the ECR3E-LAP-TGFβ1 complex. As expected, the anti-GARP antibody (MHG8) bound to the GARP-LAP-TGFβ1 complex, but not to free LAP-TGFβ1 or the ECR3E-LAP-TGFβ1 complex. 16F4 bound tightly to all three constructs.

[2] = target: T1, fusion protein of a human IgG1 Fc …; test: BLI, 2:1 heterogeneous ligand model, component 2
Experimental: The 20E6_H0.2aL1_IgG1 antibody was biotinylated using EZ-Link SulfoNHS-LC-Biotin (ThermoFisher). A streptavidin-functionalized tip was equilibrated in binding buffer (10 mM sodium phosphate, 150 mM sodium chloride, 1% (w/v) bovine serum albumin, 0.05% (w/v) sodium azide, pH 7.4) and dipped in a 10 μg/mL solution of biotinylated anti-LAP in binding buffer for 30 seconds to load the tip with antibody. The antibody-loaded tip was then washed in binding buffer and placed in a solution containing 0-24 nM of a fusion protein having a human IgG1 Fc domain fused to either human LAP-TGFβ1, human LAP-TGFβ2 or human LAP-TGFβ3. The antigen was allowed to bind to antibody for 5 minutes (association phase), and then the tip was moved to binding buffer (dissociation phase). The association and dissociation phases were fit to a 2:1 heterogenous ligand binding model to determine the binding rate constants. As shown in FIG. 21A and Table 17, 20E6_H0.2aL1_IgG1 bound with sub-nanomolar affinity to human LAP-TGFβ1, but not to human LAP-TGFβ2 (FIG. 21B) or LAP-TGFβ3 (FIG. 21C).

[3] = target: T2, human GARP and human LAP-TGFβ1 co-expressed on P3U1 cells (human, UniProt Q14392 20-662); test: flow cytometry, P3U1 cells
T2 construct: whole, on cells; also called P3U1 cells over-expressing human GARP and LAP-TGFβ1
Experimental: This Example describes the binding of anti-LAP antibodies to LAP-TGFβ isoforms and LAP-TGFβ variants. In addition to antibodies 28G11_hIgG1, 22F9_hIgG1, and 20E6_hIgG1, anti-LAP antibodies 17G8_hIgG1, 24E3_hIgG1, and 2C9_(hyb) were also tested in this experiment. Briefly, 4×10⁵ each of (a) HT1080 cells, (b) HT1080 cells overexpressing human LAP-TGFβ1, (c) HT1080 cells overexpressing human LAP-TGFβ2, (d) HT1080 cells overexpressing human LAP-TGFβ3, (e) HT1080 cells overexpressing murine LAP-TGFβ1, (f) P3U1 cells, (g) P3U1 cells overexpressing LAP-TGFβ1 and GARP, and (h) P3U1 cells overexpressing LAP-TGFβ1 and LRRC33 were cultured in 96-well plates. The plates were centrifuged for 5 min at 1,500 rpm, liquid was removed, and cells were resuspended with 200 μL FACS buffer. The plates were centrifuged again, diluted primary antibody was added to each well, and the plates were incubated on ice for 20 minutes, followed by centrifugation. The cells were resuspended in 200 μL FACS buffer, centrifuged again, and resuspended in 50 μL diluted secondary antibody (Alexa647-anti-Human IgG or APC-anti-Mouse IgG). The plates were incubated on ice for 20 minutes in the dark, washed twice with 200 μL FACS buffer, and cells from each well (in 200 μL FACS buffer) were read on the Attune NXT instrument.

[4] = target: human LAP-TGFβ1 overexpressed on cells (human, UniProt P01137 30-390); test: cell-based or functional assay
[5] = target: T1, fusion protein of a human IgG1 Fc …; test: BLI, antibody on tip, 1:1 model
Experimental: Binding to human TGFβ1 of a subset of candidates was also tested by bio-layer interferometry (Octet). A streptavidin coated tip was equilibrated for 60 seconds in binding buffer (10 mM sodium phosphate, 150 mM sodium chloride, 1% bovine serum albumin, 0.05% sodium azide). The tip was then dipped in 10 μg/mL biotinylated antibody in binding buffer. After 15 seconds, the tip was washed in binding buffer for 60 seconds, and then dipped in 0-24 nM Fc-human LAP. Analyte association was measured for 5 minutes. The tip was transferred to binding buffer alone, and analyte dissociation was measured for 5 minutes. The association and dissociation data were fit to a 1:1 binding model.

T1 sequence (P01137 30-390 limits assumed): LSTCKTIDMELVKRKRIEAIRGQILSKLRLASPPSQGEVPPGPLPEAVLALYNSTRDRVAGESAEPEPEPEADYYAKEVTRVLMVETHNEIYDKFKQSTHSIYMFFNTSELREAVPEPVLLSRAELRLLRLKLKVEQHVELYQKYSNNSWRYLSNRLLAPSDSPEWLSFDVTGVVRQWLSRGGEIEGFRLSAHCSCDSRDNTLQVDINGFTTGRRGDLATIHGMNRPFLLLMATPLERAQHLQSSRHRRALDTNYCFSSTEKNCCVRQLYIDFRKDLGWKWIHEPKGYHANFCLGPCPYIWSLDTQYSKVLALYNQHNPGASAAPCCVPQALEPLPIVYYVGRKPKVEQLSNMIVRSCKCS
T2 sequence (chain, as listed by the source, chain 1 of 2): as the sequence (P01137 30-390 limits assumed) above
T2 sequence (Q14392 20-662, chain 2 of 2): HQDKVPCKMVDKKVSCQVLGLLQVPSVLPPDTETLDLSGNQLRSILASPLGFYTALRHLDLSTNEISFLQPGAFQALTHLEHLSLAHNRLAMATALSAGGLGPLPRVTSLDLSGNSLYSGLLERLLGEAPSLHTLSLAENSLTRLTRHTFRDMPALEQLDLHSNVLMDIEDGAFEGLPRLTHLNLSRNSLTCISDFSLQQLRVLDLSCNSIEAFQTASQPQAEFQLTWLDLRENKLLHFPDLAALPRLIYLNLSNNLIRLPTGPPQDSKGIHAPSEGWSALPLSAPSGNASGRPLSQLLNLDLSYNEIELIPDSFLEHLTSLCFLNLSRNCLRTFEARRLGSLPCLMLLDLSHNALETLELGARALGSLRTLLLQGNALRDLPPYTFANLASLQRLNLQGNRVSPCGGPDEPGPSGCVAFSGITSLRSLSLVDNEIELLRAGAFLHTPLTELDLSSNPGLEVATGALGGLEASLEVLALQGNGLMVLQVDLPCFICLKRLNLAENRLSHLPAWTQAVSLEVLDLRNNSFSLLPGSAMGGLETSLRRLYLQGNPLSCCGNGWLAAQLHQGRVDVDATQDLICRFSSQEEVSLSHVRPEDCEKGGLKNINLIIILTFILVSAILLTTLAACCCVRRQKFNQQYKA
human LAP-TGFβ1 overexpressed on cells, sequence (P01137 30-390): as the sequence (P01137 30-390 limits assumed) above

Kd [1] [nM]	koff [1] [s⁻¹]	kon [1] [M⁻¹ s⁻¹]	Kd [2] [nM]	koff [2] [s⁻¹]	kon [2] [M⁻¹ s⁻¹]	binding result [3]	Inhibition of human TGFβ1 activation (IC50) [4] [µg/mL]	Kd [5] [nM]	koff [5] [s⁻¹]	kon [5] [M⁻¹ s⁻¹]	Binder
16.2	0.0406	2.51e+06	0.35	0.000409	1.18e+06						20E6_H0.2aL1_hIgG1 (antibody, also called 20E6_H0.2aL1_IgG1; humanized 20E6) heavy: not shown light: DIQMTQSPSSLSASVGDRVTITCRASQDITNYLNWYQQKPGKAVKLLIYYTSRLHSGVPSRFSGSGSGTDYTLTISSLQPEDFATYFCQQGDTLPWTFGQGTKLEIKRTVAAPSVFIFPPSDEQLKSGTASVVCLLNNFYPREAKVQWKVDNALQSGNSQESVTEQDSKDSTYSLSSTLTLSKADYEKHKVYACEVTHQGLSSPVTKSFNRGEC
						binds	3.9	3.74	0.00168	450000	22F9_hIgG1 (antibody, V domains shown) VH: QVQLQQPGAELVKPGASVKLSCKASGYTFTSYWMHWVKQRPGQGLEWIGMIHPNSGSTNYNEKFKSKATLTVDKSSSTAYMQLSSLTSEDSAVYYCAYYDYDGFFDVWGTGTTVTVSS VL: DIVLTQSPASLDVSLGQRATISCRASKSVSTSGYSYMHWYQQKSGQPPKLLIYLASNLESGVPARFSGSGSGTHFTLNIHPVEEEDAATYYCQHSRELPYTFGGGTKLEIK

Reference: patent US20220017612A1 (TILOS THERAPEUTICS, published 2022)
